Our source for the interaction score values is paper PMC10397247.

Common to all, as to experiment: two-hybrid library CCNG1;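 further: natural log of median RNA to DNA barcode read ratio; higher means stronger binding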
One assay deals with T1, 4H338-bH.
T1 chain: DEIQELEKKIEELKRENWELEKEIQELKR

The next assay concerns the target T2, 4H1544-bN.
T2 chain: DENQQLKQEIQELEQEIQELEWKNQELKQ

In the next assay the target is T3, 4H2697-bH.
T3 chain: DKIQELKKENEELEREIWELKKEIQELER

The next assay deals with T4, 4H72-bN.
T4 chain: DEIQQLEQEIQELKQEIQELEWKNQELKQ

A further assay addresses T5, 4H3974-bN.
T5 chain: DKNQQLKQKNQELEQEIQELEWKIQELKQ

A further assay addresses T6, 4H3613-bN.
T6 chain: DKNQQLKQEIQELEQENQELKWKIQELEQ

The next assay deals with T7, 4H3162-bN.
T7 chain: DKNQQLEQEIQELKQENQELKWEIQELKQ

The target in another assay is T8, 4H3926-bN.
T8 chain: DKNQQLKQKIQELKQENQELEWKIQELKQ

Another assay addresses T9, 4H570-bN.
T9 chain: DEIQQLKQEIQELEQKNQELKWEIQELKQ

In the next assay the target is T10, 4H1985-bN.
T10 chain: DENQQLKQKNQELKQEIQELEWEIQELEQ

For the next assay, the target named is T11, 4H3298-bN.
T11 chain: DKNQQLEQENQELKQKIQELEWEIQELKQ

The next assay deals with T12, 4H906-bN.
T12 chain: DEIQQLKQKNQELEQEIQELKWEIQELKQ

For a further assay, the target named is T13, 4H3175-bN.
T13 chain: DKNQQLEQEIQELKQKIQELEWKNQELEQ

For the next assay, the target named is T14, 4H1449-bN.
T14 chain: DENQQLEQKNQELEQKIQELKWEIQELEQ

The next assay concerns the target T15, 4H626-bN.
T15 chain: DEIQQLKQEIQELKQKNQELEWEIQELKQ

In another assay the target is T16, 4H3277-bN.
T16 chain: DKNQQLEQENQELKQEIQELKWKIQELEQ

The target of a further assay is T17, 4H850-bN.
T17 chain: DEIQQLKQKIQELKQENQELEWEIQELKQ

In a further assay the target is T18, 4H3628-bN.
T18 chain: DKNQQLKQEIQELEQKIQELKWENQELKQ

For a further assay, the target named is T19, 4H3858-bN.
T19 chain: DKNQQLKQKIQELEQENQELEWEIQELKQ

The target of the next assay is T20, 4H1899-bN.
T20 chain: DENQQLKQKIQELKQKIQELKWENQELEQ

The next assay has as its target T21, 4H3462-bN.
T21 chain: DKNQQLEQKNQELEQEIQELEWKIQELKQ

The next assay addresses T22, 4H3497-bN.
T22 chain: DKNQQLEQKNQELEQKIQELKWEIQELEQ

In a further assay the target is T23, 4H1373-bN.
T23 chain: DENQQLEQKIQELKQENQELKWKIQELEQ

Another assay deals with T24, 4H1710-bN.
T24 chain: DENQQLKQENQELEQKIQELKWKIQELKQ

In another assay the target is T25, 4H3817-bN.
T25 chain: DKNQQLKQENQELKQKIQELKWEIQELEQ

In the next assay the target is T26, 4H591-bN.
T26 chain: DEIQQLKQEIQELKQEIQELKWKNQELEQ

A further assay concerns the target T27, P7mS.
T27 chain: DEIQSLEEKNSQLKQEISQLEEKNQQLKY

A further assay deals with T28, P4mS.
T28 chain: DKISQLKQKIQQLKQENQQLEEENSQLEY

The next assay deals with T29, P6mS.
T29 chain: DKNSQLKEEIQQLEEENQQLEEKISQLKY

The target in another assay is T30, P8mS.
T30 chain: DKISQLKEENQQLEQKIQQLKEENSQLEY

For another assay, the target named is T31, P5mS.
T31 chain: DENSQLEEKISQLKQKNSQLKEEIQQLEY

The target in the next assay is T32, P9mS.
T32 chain: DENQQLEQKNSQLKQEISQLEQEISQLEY

A further assay addresses T33, 4H2692-bH.
T33 chain: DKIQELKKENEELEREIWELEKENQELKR

In the next assay the target is T34, 4H2588-bH.
T34 chain: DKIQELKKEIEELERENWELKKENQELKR

Another assay has as its target T35, 4H3057-bH.
T35 chain: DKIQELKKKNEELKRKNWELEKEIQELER

In a further assay the target is T36, 4H2473-bH.
T36 chain: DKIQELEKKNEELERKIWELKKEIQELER

Another assay has as its target T37, 4H2223-bH.
T37 chain: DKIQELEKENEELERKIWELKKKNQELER

For a further assay, the target named is T38, 4H2915-bH.
T38 chain: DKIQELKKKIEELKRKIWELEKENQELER

In a further assay the target is T39, 4H319-bH.
T39 chain: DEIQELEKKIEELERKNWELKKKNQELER

The next assay deals with T40, 4H2503-bH.
T40 chain: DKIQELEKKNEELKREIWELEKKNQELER

A further assay concerns the target T41, 4H741-bH.
T41 chain: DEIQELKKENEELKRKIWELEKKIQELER

The target of a further assay is T42, 4H2717-bH.
T42 chain: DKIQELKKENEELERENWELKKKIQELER

The next assay addresses T43, 4H40-bH.
T43 chain: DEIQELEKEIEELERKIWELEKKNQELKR

The target of another assay is T44, 4H492-bH.
T44 chain: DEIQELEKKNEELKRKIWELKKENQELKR

The target of the next assay is T45, 4H348-bH.
T45 chain: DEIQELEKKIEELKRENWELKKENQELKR

For a further assay, the target named is T46, 4H477-bH.
T46 chain: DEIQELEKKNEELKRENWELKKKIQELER

A further assay deals with T47, 4H2839-bH.
T47 chain: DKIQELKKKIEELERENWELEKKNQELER

A further assay has as its target T48, 4H3277-bH.
T48 chain: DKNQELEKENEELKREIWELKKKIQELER

For another assay, the target named is T49, 4H2438-bH.
T49 chain: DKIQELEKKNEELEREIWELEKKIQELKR

The target of a further assay is T50, 4H454-bN.
T50 chain: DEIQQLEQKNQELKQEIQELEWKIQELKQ

The next assay deals with T51, 4H797-bN.
T51 chain: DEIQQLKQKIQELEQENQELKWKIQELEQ

The target in another assay is T52, 4H883-bN.
T52 chain: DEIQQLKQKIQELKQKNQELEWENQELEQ

A further assay addresses T53, 4H607-bN.
T53 chain: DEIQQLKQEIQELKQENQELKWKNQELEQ

The target of another assay is T54, 4H717-bN.
T54 chain: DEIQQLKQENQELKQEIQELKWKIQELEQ

For another assay, the target named is T55, 4H4001-bN.
T55 chain: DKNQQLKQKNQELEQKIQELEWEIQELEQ

A further assay addresses T56, 4H3354-bN.
T56 chain: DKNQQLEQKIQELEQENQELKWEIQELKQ

The target in a further assay is T57, P9SHb.
T57 chain: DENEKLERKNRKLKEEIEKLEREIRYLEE

The next assay has as its target T58, 4H953-bN.
T58 chain: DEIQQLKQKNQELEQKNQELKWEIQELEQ

Another assay deals with T59, 4H687-bN.
T59 chain: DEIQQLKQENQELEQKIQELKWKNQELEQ

A further assay deals with T60, 4H3427-bN.
T60 chain: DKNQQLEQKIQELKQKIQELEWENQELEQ

For another assay, the target named is T61, 4H908-bN.
T61 chain: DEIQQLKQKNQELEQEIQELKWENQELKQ

The target in a further assay is T62, 4H338-bN.
T62 chain: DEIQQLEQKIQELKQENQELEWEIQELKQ

The next assay concerns the target T63, 4H3185-bN.
T63 chain: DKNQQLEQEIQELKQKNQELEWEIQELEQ

The target in another assay is T64, 4H918-bN.
T64 chain: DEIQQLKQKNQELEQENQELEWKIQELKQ

A further assay has as its target T65, 4H568-bN.
T65 chain: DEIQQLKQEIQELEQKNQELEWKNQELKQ

The next assay deals with T66, 4H967-bN.
T66 chain: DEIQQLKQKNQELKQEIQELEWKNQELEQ

A further assay deals with T67, 4H331-bN.
T67 chain: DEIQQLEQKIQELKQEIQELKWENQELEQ

Another assay addresses T68, 4H3855-bN.
T68 chain: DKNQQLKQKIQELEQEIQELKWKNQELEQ

A further assay concerns the target T69, 4H754-bN.
T69 chain: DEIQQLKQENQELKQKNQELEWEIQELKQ

For a further assay, the target named is T70, 4H3782-bN.
T70 chain: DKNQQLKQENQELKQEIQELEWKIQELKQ

With DENQQLEQKIQELKQENQELKWKIQELEQ [4H1373-bN], the interaction score was -0.758 with 4H338-bH; -0.522 with 4H1544-bN; -2.86 with 4H2697-bH; -2.48 with 4H72-bN; -0.592 with 4H3974-bN; 1.13 with 4H3613-bN. For the same molecule, the interaction score with 4H3162-bN was -0.675; in the assay with 4H3926-bN it was 1.21; with 4H570-bN it was -1.29; in the assay with 4H1985-bN, -1.63; in the assay with 4H3298-bN, -0.763; in the assay with 4H906-bN it was -1.37. Also, the interaction score in the assay with 4H3175-bN is -0.941; with 4H1449-bN it was -0.869; in the assay with 4H626-bN, -0.375; in the assay with 4H3277-bN, -1.18; with 4H850-bN, -0.952; in the assay with 4H3628-bN it was -0.846. Also, the interaction score with 4H3858-bN is 0.337; in the assay with 4H1899-bN it was -1.32; with 4H3462-bN, -0.946; with 4H3497-bN, -1.41; in the assay with 4H1373-bN, -0.169; with 4H1710-bN it was -0.292. Moreover, the interaction score with 4H3817-bN was -0.749; with 4H591-bN it was -0.619.

On to DKISQLKQKIQQLKQENQQLEEENSQLEY [P4mS], for which the interaction score with P7mS is -1.14; with P4mS it was -1.66; in the assay with P6mS it was -1.48; in the assay with P8mS, -1.85; with P5mS, -1.04; in the assay with P9mS, -1.28.

For DKIQELEKENEELERKIWELKKKNQELER [4H2223-bH], the interaction score in the assay with 4H2692-bH is 0.736; with 4H2588-bH, 0.461; in the assay with 4H3057-bH it was 0.455; in the assay with 4H2473-bH, 0.446; in the assay with 4H2223-bH it was -0.882; in the assay with 4H2915-bH it was 0.816. The interaction score with 4H319-bH was -0.374; in the assay with 4H2503-bH it was 1.19; with 4H741-bH it was 0.0741; with 4H2717-bH it was 0.113; with 4H40-bH, -1.6; with 4H492-bH, -0.847. Also, the interaction score was -1.35 with 4H348-bH; -0.907 in the assay with 4H477-bH; 0.582 with 4H2839-bH; 0.0226 in the assay with 4H3277-bH; -0.678 with 4H2438-bH.

Regarding DKNQQLEQEIQELKQKNQELEWEIQELEQ [4H3185-bN], the interaction score with 4H454-bN is -2.08; with 4H797-bN it was -0.638; in the assay with 4H883-bN it was -1.12; in the assay with 4H607-bN, -0.581; with 4H72-bN it was -2.24; with 4H717-bN, -0.903. Moreover, the interaction score is -1.46 with 4H4001-bN; -0.593 with 4H3354-bN; -0.815 with P9SHb; -1.45 with 4H953-bN; -0.366 with P4mS; -2.77 with 4H687-bN. The interaction score with 4H3427-bN was -0.99; with 4H908-bN, -0.952; in the assay with 4H338-bN it was -1.14; with 4H3185-bN, -1.05; with 4H918-bN it was -1.19; with 4H568-bN, -2.82. The interaction score is -2.19 with 4H967-bN; -2.02 with 4H331-bN; -1.23 with 4H3855-bN; -0.979 with 4H754-bN; -0.997 in the assay with 4H3782-bN.
